{"source": "patent US20060216716A1", "about": "“Immunologic activity measures for t helper on-associated conditions” (priority 2003, published 2006)", "key": {"CXCL9": {"tested_on": "CXCL9", "assay": "activated CXCL9 levels (interferon-gamma and tumor necrosis factor-alpha stimulation) in Crohn's Disease subjects by medication usage", "format": "in vivo", "conditions": "disease active or in remission, FIG. 7", "procedure": "(§1) Following informed consent, a heparinized whole blood sample. […] Finally, and the plate is again washed repeatedly.\nIn a subsequent experiment, a combination of stimulating cytokines (interferon-gamma and tumor necrosis factor-alpha) was administered to Crohn's Disease patients and the effects of medication studied."}, "CXCL10": {"tested_on": "CXCL10", "conditions": "within individual Crohn's Disease subjects; interferon-gamma activation; FIG. 4", "description": "A pro-inflammatory stimulant, e.g., interferon-gamma, is added at a concentration of approximately 1000 units/cc and incubated at 37° C. […] At an appropriate time interval, e.g., 3 hours, the samples are centrifuged to allow collection of the plasma, or serum (the non-cell containing portion of the blood). […] In a standard sandwich ELISA detection, the plasma/serum is allowed to incubate with a capture antibody. Then, the sample is removed, the plate is washed multiple times and an antibody labeled with an enzyme is applied (detection antibody). Finally, and the plate is again washed repeatedly. Depending on the enzyme used for the detection antibody, a color change becomes evident over time after addition of the proper enzyme substrate, which can then be detected using specified light wavelength measurements. The light absorbance can be measured using a standard ELISA plate reader, which in turn produces a number. By comparing this number to a standard curve for CXCL10, a quantified amount of CXCL10 can be determined, or alternatively, the absorbance number itself may be used."}, "WBC [1]": {"tested_on": "WBC", "assay": "ex vivo blood stimulation, CXCL9 levels", "format": "cell-based", "excerpt": "as §1\nThe effects of different forms of activation and a combination of activating cytokines on CXCL9 levels in Crohn's Disease subjects was also studied."}, "WBC [2]": {"tested_on": "WBC", "assay": "ex vivo whole blood stimulation, CXCL10 release by WBC (ELISA)", "format": "cell-based", "conditions": "3 hours post stimulation; subjects with Crohn's Disease or Ulcerative Colitis; FIG. 1", "excerpt": "as §1\nThis response also occurs in normal individuals as well."}}}
{"molecule": "S=c1nc[nH]c2nc[nH]c12", "note": "[6 MP]", "values": [{"measurement": "effect of medication usage on activated CXCL9 levels", "setting": "CXCL9", "result": "brought about a change"}]}
{"molecule": "azathioprine/6MP", "values": [{"measurement": "effect of medication on activated CXCL10 levels over time", "setting": "CXCL10", "result": "significant changes"}]}
{"molecule": "interferon-gamma (protein, UniProt P01579 24-161, looked up, pro-inflammatory stimulant cytokine added to the blood sample) Interferon gamma: QDPYVKEAENLKKYFNAGHSDVADNGTLFLGILKNWKEESDRKIMQSQIVSFYFKLFKNFKDDQSIQKSVETIKEDMNVKFFNSNKKKRDDFEKLTNYSVTDLNVQRKAIHELIQVMAELSPAAKTGKRKRSQMLFRG", "values": [{"measurement": "serum CXCL9 concentration levels after stimulation", "setting": "WBC [1]; Crohn's Disease subjects, FIG. 6", "result": "increased"}, {"measurement": "serum CXCL9 concentration levels after stimulation", "setting": "WBC [1]; Ulcerative Colitis subjects, active and inactive disease, FIG. 8", "result": "increased"}, {"measurement": "CXCL10 response following stimulation", "setting": "WBC [2]", "result": "a larger spread and an increase in the measurable values"}]}
